We go through 41 sequences from the nanobody polyreactivity screen of Harvey et al. (2022).

The nature of the data set: yeast display, Sf9 membrane polyspecificity reagent, FACS + sequencing; frameworks hold sequencing errors. An outline of the steps: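 After 36–48 hours of galactose induction, yeast (Saccharomyces cerevisiae BJ5465) displaying a synthetic nanobody library were stained at 4 °C for 1 hour with 10% biotinylated, detergent-solubilized Sf9 membrane reagent. Streptavidin microbeads enriched the stained cells before FACS sorting into low and high (top ~1%) gates on anti-HA and streptavidin fluorescence. Each clone's polyreactivity label reflects its gate of origin.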
For “QVQLVESGGGLVQAGGSLRLSCAASGLTFYSNSMGWYRPAPGKERELVAVISADGASTYYADSVKGRFTISRDNAKNTVYLQMNSLKPEDTAVYYCAARVSARGKGYYWGQGTQVTVSS”, the “polyreactivity (PSR sort gate)” value was “high polyreactivity”.
In the case of “QVQLVESGGGLVQAGGSLRLSCAASGLTFYTNAMGWYRQAPGKERELVAAITSSGGRTYYADSVKGRFTISRDNAKNTVYLQMNILKPEDTAVYYCAADALRPRIPEMYYWGQGTQVTVSS”, the “polyreactivity (PSR sort gate)” value is “high polyreactivity”.
The result for “QVQLVESGGGLVQAGGSLRLSCAASGLTFYTYPMGWYRQAPGKERELVAAISSSTGSTYYADSVKGRFTISRDNAKNTVYLQMNSLKPEDSAVYYCAAESYWGVNYWGQGTQVTVSS” reads “high polyreactivity”; that for “QVQLVESGGGLVQAGGSLRLSCAASGLTFYVYTMGWYRQAPGKERELVAVISSGDSTYYADSVKGRFTISRDNAKNTVYLQMNSLKPEDTAVYYCAAGTHYRIVRYGLYDYWGQGTQVTVSS”, “low polyreactivity”; that for “QVQLVESGGGLVQAGGSLRLSCAASGLTFYVYTMGWYRQEPGKERELVAAITGSGGSTFYADSVKGRFTISRDNAKNTVFIQMNSLKREDTAVYYCAAYYYMSDGYDYWGQGTQVTVSS”, “low polyreactivity”.
The result for “QVQLVESGGGLVQAGGSLRLSCAASGLTFYWNAMGWYRQAPGKERELVASISQSSGNTYYADSVKGRFTISRDNAKNTVYFQMNSLKPEDTAVYYCAARNRPSLNRYYYWGQGTQVNVSS” reads “low polyreactivity”; that for “QVQLVESGGGLVQAGGSLRLSCAASGLTFYYNAMGWYRQAPGKERELVAAISRSGGSTYYADSVKGRFTISRDNAKNTVYLQMNSLEPEDTAVYYCAAALRKEYDYWGQGTQVTVSS”, “high polyreactivity”; that for “QVQLVESGGGLVQAGGSLRLSCAASGLTFYYNAMGWYRQAPGKERELVAAITRGTSTHYADSVKWRFTISRDNAKNTVYLQMNSLKPEDTAVYYCAAPYRYSWWRGDYWGQGTQVTVSS”, “high polyreactivity”.
On to “QVQLVESGGGLVQAGGSLRLSCAASGLTFYYYAMGWSRQAPGKERELVAAISRSGGSTYYADSVKGRFTISRDNAKNTVYLQINSLKPEDTAVYYCAAREPYEGQRYYYEYYYWGQGTQVTVSS”, for which the “polyreactivity (PSR sort gate)” value is on record as “high polyreactivity”.
The result for “QVQLVESGGGLVQAGGSLRLSCAASGLTFYYYAMGWYRQAPGKERELVASINRSSGSTYYADSVKGRFTISRDNAKNTVYLQMNSLKPEDTAVYYCAVKKHWPHPAYTRYYKYYYWGQGTQVTVSS” reads “high polyreactivity”; that for “QVQLVESGGGLVQAGGSLRLSCAASGLTFYYYAMGWYSQPPGKERELVAAISIGGSTDYADSVKGRFTISRDNAKNTVYLQMNSLKPEDTAVYYCNVDDNSEYEYWGQGTQVTVSS”, “low polyreactivity”; that for “QVQLVESGGGLVQAGGSLRLSCAASGLTFYYYTMGWYRQAPGKERELVATISRSGTSTNYADSVKGRFTISRDNAKNTVYLQMNSLKPEDTAVYYCAAVLRWRDLFSEYYYWGQGTQVTVSS”, “high polyreactivity”.
To “QVQLVESGGGLVQAGGSLRLSCAASGLTIDYYTMGWYRQAPGKERELVAAINWSGGRTYYADSVKGRFTISRDHAKNTVYLQMNSLKPEDTAVYYCAADTYRRHDDDYWGQGTQVTVSS” belongs “high polyreactivity”; to “QVQLVESGGGLVQAGGSLRLSCAASGLTIFRNAMGWYRQAPGKEREFVAGITSTDGSTYYADSVKGRFTISRDNAKNTVYLQMNSLKPEDTAVYYCAAAYRVRGRTYDSWGQGTQVTVSS”, “high polyreactivity”.
To “QVQLVESGGGLVQAGGSLRLSCAASGLTIFVNAMGWYRQAPGKERELVATISCGGSTYYADSVKGRFTISRDNANNTVYLQLNSLKPEDSSVFYCNAADVGGQWWYPYTYNYWGQGTQVTVSS” belongs “low polyreactivity”.
“QVQLVESGGGLVQAGGSLRLSCAASGLTIWRYAMGWYRQAPGKEREFVATISQNGGRTYYADSVKGRFTISRDNAKNTVYLQMNSLKPEVNAVYYCAADDWRWGYDYWGQGTQVTVSS”: the “polyreactivity (PSR sort gate)” value is given as “high polyreactivity”.
Consider “QVQLVESGGGLVQAGGSLRLSCAASGLTLDQYPMGWYRPAPGKEREFVAAISYSGGNTYYADSVKGRFTISRYNAKNTVYLQMNSLKPEETAVYYCAAYYYYFYHKVIWYELDYWGHGTQVTVSS”, for which the “polyreactivity (PSR sort gate)” value is listed as “low polyreactivity”.
The result for “QVQLVESGGGLVQAGGSLRLSCAASGLTLGRYAKGWYRQAPGKARELVAVITGGGSTNYADSVKGRFTISRDNAKNTVYLQMNTLKTEDTAVYFCAVRGGIFQTLSTWYRYYYWGQGTQVTVSS” reads “high polyreactivity”; that for “QVQLVESGGGLVQAGGSLRLSCAASGLTLGRYARGWYRQAPGKERELVAVITGGGSTNYADSVKGRFTISRDNSKNTVYLQMNSLKPEDTAVYYCAAARSPYKYSYWGQGTQVTVSS”, “high polyreactivity”.
To “QVQLVESGGGLVQAGGSLRLSCAASGLTLGSYTMGWYRQAPGKERELVAAIRKRGSSSYYADSVKGRFTISRDNAKNTVYLQMISQKPEDTAVYYCATDVASYWYRFFWRYGYWGQGTQVTVSS” belongs “low polyreactivity”; to “QVQLVESGGGLVQAGGSLRLSCAASGLTLKRNAMGWYRQAPGKERELVAAISGRGGSTYYADSVKGRFTISRDNAKNTVYLQMNSLKPEVTAVYYCAATVQYSPIYDYWGQGTQVTVSS”, “high polyreactivity”; to “QVQLVESGGGLVQAGGSLRLSCAASGLTLRNYAMGWYRQAPGKERELVAAITTGGGRTYYADSVKGRFTISRDNAKNTVYFQMNSVKPEDTAVYYCAADAPREYVDHYKYDDDYWGQGTQVTVSS”, “low polyreactivity”.
Regarding “QVQLVESGGGLVQAGGSLRLSCAASGLTLTWNAMGWYRQAPGKERELVAAITGSGGRTNYADSVKGRFTISRDNAKNTVYLQMNSLKPEDTAVYYCASFRWYHWGTRYDYWGQGTQVTVSS”, the “polyreactivity (PSR sort gate)” value was “high polyreactivity”.
In the case of “QVQLVESGGGLVQAGGSLRLSCAASGLTLTYYAMGWYRQAAGKERELVAAISSSGGSTYYADSVKGRFTISRDNAKNTVYLQMNSLKPEDTAVYYCAATRVSWTGRDDYWGQGTQVTVSS”, the “polyreactivity (PSR sort gate)” value was “high polyreactivity”.
Consider “QVQLVESGGGLVQAGGSLRLSCAASGLTLWTYAMGWYIQAPGQERELVARIRSGGSTYYADSVKGRFTISRDNAKNTVYLQMNSLKPEDTAVYYCAADLQSRVDYWGQGTQVTVSS”, for which the “polyreactivity (PSR sort gate)” value is listed as “high polyreactivity”.
With “QVQLVESGGGLVQAGGSLRLSCAASGLTLYFYVMGWYRQAPGKERELVAAISSTGSTYYADSVKGRFSISRDNAKNTVYLQMNSLKPEDTAVYYCAARKRGWYGYWGQGTQVTVSS”, the “polyreactivity (PSR sort gate)” value was “high polyreactivity”.
To “QVQLVESGGGLVQAGGSLRLSCAASGLTLYKNGMGWYRQAPGKERELVAVISRSGGRTYYADSVKGRFTISRDNAKNTVYLQMNSLKPEDTAVYYCAARQYGPRYTYYYWGQGTQVTVSS” belongs “high polyreactivity”; to “QVQLVESGGGLVQAGGSLRLSCAASGLTLYKNGMGWYRQAPGKERELVAVISRSGGRTYYAESVKGRFTISRDNAKNTVYLQMNSLKPEDTSVYYCAKRYGYTEYYYWGQGTQVTVSS”, “high polyreactivity”.
Consider “QVQLVESGGGLVQAGGSLRLSCAASGLTLYRYVMGWYRQAPGKERELVADISGRGTSTYYADSVKGRFTISRDNAKNTVYLQMNRLKPAATAVYYCNAEYTKTGALVIPYTYYYAEDYWGQGTQVTVSS”, for which the “polyreactivity (PSR sort gate)” value is “low polyreactivity”.
With “QVQLVESGGGLVQAGGSLRLSCAASGLTLYYNAMGWYRQAPGKERELVAAMSGSGGNTYYADSVKGRFTISRDNAKNTVYLQMNSLKPEDTAVYYCNAYTHSRNPERREYYWGQGTQVTVSS”, the “polyreactivity (PSR sort gate)” value is “high polyreactivity”.
Take “QVQLVESGGGLVQAGGSLRLSCAASGLTSVRYAMGWYRQAPGKERELVARISTGGSTYYADSVKGRFTISRDNAKNTVYLQMNSLKPEDTAVYYCNKGYARRYASGYDYWGQGTQVTVSS”: the “polyreactivity (PSR sort gate)” value was “high polyreactivity”.
Turning to “QVQLVESGGGLVQAGGSLRLSCAASGLTVKWNAMGWYREAPGKETELFASITSGGSTNYADSVKGRFTISRDNAKNTVYLQMNSLKPEDTAFYYCNAEYYLFKRPYSYYYWGQGTQVTVSS”, the “polyreactivity (PSR sort gate)” value was “low polyreactivity”.
To “QVQLVESGGGLVQAGGSLRLSCAASGMFGLNAMGWYRQAPGKERELVAAIRWTGSSTYYADSVKGRFTISRDNAKNTVYLQMNSLKPEDTADYYCAADFYVWGIWMEYWGQGTQVTVSS” belongs “high polyreactivity”; to “QVQLVESGGGLVQAGGSLRLSCAASGMIFRRYAMGWYRQAPGKERELVAAITSGGSTYYADSVKGRFTISRDNAKKTVYLQMNSLKAEDTAVYSCAAVFYYATYSKKFEYWGQGTQVTVSS”, “high polyreactivity”.
To “QVQLVESGGGLVQAGGSLRLSCAASGMTFTYYAMGWYRQAPGKERELVAAISWSDGSTYYADSVKGRFTISRDNAKNTVYLQMNSLKPEDTAVYYCAARYGGAISQAKYYYWGQGTQVTVSS” belongs “high polyreactivity”; to “QVQLVESGGGLVQAGGSLRLSCAASGNGLGWYRQAPGKERELVAAITRRGGSTYYADSVKGRFTISRDNAKNTVYLQMNSLKPEDTAVYYCAADNPSYNLWYGYWGQGTQVTVSS”, “low polyreactivity”; to “QVQLVESGGGLVQAGGSLRLSCAASGNHLRSLCLGWYRQAPGKERELVAAITSSGASTYYADSVKGRFTISRDNAKNTVYLQMNSLKPEDTAVYYCAAYLFRRYDYWGQGTQVTVSS”, “low polyreactivity”.
To “QVQLVESGGGLVQAGGSLRLSCAASGNICRINGMGWYRQAPGKERELVASITRSGSTYYADSVKGRFTISRDNAKNTVYLQMNSLKPEDTAVYYCNADGWYWQAQGYDYWGQGTQVTVSS” belongs “low polyreactivity”; to “QVQLVESGGGLVQAGGSLRLSCAASGNIFAINAMGWYRQPPGKERELVAAISSRGGSTTYADSVKGRFTISRDIAKNTVYLQMNSLKPEDTAVYDCAADFVRDRFFRYDYWGQGTQVTVSS”, “high polyreactivity”; to “QVQLVESGGGLVQAGGSLRLSCAASGNIFARYAMGWYRQATGKERDLVSAISRSGGSTYYADSVKGRFTISRDNAKNSVYLQMKCLKPEDTAVYYCNAKSYGVLYWFAYDYWGQGTQVTVSS”, “high polyreactivity”.
As for “QVQLVESGGGLVQAGGSLRLSCAASGNIFATYAMGWYRQAPGKERELVAAIRSGGNTNYADSVKGRFTISRDNAKNTVYLQMNSLKPEDTAVYYCNAYKIFYGYIRYNYWGQGTQVTVSS”, the “polyreactivity (PSR sort gate)” value is given as “high polyreactivity”.
